From patent publication US20110117017A1, “PEPTIDES WITH PROPERTIES OF AN […] FOR THE ALPHA 1A […] RECEPTOR AND USES THEREOF” (priority 2006, published 2011)

Molecular target: T1, alpha1a adrenergic receptor (Homo sapiens, UniProt P35348)
T1 sequence (P35348 1-466): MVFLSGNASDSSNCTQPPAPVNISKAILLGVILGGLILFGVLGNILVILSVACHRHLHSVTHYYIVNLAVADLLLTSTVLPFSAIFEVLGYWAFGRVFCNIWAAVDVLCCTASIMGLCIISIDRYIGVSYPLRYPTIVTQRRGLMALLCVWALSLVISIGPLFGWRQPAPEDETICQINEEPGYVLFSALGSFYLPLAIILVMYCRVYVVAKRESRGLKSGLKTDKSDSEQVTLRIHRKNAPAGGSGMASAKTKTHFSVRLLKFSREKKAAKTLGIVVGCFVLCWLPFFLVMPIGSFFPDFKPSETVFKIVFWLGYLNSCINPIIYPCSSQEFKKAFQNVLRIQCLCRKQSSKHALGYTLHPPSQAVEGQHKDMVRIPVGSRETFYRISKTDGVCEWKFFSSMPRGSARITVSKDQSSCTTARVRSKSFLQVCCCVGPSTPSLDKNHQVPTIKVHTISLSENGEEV
Test: hot saturation of 125I-AdTx1 on yeast membranes expressing the alpha1a adrenergic receptor
Conditions: read-out: high-affinity specific binding (saturation) to the alpha1a adrenergic receptor; 20 μg yeast membranes, 20 h
Protocol: The analysis of the saturation of the alpha1a adrenergic receptor with AdTx1 is carried out by incubating increasing concentrations of the iodinated peptide in the presence of 20 μg of membranes containing the alpha1a adrenergic receptor, for 20 h, and then measuring the radioactivity as above.

B1: ^125I-AdTx1: radiolabeled (iodinated) AdTx1 peptide (peptide)
peptide: LTCVTSKSIFGITTEDCPDGQNLCFKRRHYVVPKIYDSTRGCAATCPIPENYDSIHCCKTDKCNE
modifications: also: radioiodinated (125I), place not given here
- Kd: 0.8 ± 0.2 nM
